In the supplement of paper PMC12042874:
± gives the uncertainty stated by the source.

Assay: amyloid nucleation score (Sup35N fusion, yeast selection) (log enrichment); library NNK2; higher = more nucleation; inactive = no reads after selection
Outline: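 Peptides of 20 random codons fused to Sup35N were expressed in psi-negative yeast, induced 24 hours with 100 μM copper sulfate, then grown 7 days at 30°C on medium lacking adenine and uracil. Input and output plasmid inserts were Illumina-sequenced. Nucleation score is the DiMSum log enrichment of output over input reads, centred on the mode score of non-aggregating sequences, excluding sequences with under 100 input reads. Random libraries had three technical output replicates.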

Going from APHGLRKHSIMVAGMLRSVG to IRVSLFYPSG, the amyloid nucleation score rises from 2.68 ± 0.14 to 3.89 ± 0.051.

Going from FRAFLQITLILNCGSSASDV to WFGYIYFHTTYSFFGHPAAT, the amyloid nucleation score falls from 3.45 ± 0.11 to -1.5 ± 1.1.

ISQAWVS and TYYVYEVGVS are within error of each other in amyloid nucleation score: -0.329 ± 0.25 for the first, -0.203 ± 0.41 for the second.

Going from LLPWHRIAWDAYCMWGMSSS to DFIKMVV, the amyloid nucleation score rises from 0.266 ± 0.21 to 3.73 ± 0.12.

GKMGYFEWGVLDYIVRLSGT and LQSKAGEPLGRDMRLFLVPV are within error of each other in amyloid nucleation score: 0.851 ± 0.27 for the first, 0.698 ± 0.58 for the second.

Compared with NNPWFCGGSLWLYGSQYSPS, LFIRSIRPMDVVGVTLSAVE is lower in amyloid nucleation score: 3.23 ± 0.078 for the first, 0.764 ± 0.41 for the second.

Going from WCSNR to VKIWLCATCFMGEDVQETAQ, the amyloid nucleation score rises from 0.153 ± 0.45 to 7.055 ± 0.044.

AYMVASMESMDACRVLRLPS and PCIWGDVVL are within error of each other in amyloid nucleation score: 0.87 ± 0.21 for the first, 0.506 ± 0.41 for the second.

NDCSGKDVVILQQE and LPHKIM are within error of each other in amyloid nucleation score: 0.192 ± 1 for the first, 0.262 ± 0.53 for the second.

First: ISWAVKMHDIPV
Second: LNMMIINISFRSKSVDGSRM
The amyloid nucleation score of the first is lower: 0.97 ± 0.58 for the first, 6.945 ± 0.056 for the second.

Going from TRFRRDESRTSEDLRPRNRR to YRLVHNSKREPGWRSCEWDH, the amyloid nucleation score falls from 1.26 ± 0.23 to 0.046 ± 0.63.

VCFML and FTLALSYITRTKSTHAC are within error of each other in amyloid nucleation score: 0.94 ± 0.52 for the first, -0.27 ± 1.1 for the second.

VFAWLIVGIWACLFGARIFW and ILKPYCVCDLSNKLE are within error of each other in amyloid nucleation score: -0.291 ± 0.4 for the first, 0.199 ± 0.4 for the second.

Compared with ISKLTTRLLIYERNFPNWGH, RGVFAMLTVSYGNS is higher in amyloid nucleation score: 3.19 ± 0.17 for the first, 5.483 ± 0.043 for the second.

Compared with SCPGLGNRIPDTVKYT, IWILELFKY is higher in amyloid nucleation score: 0.969 ± 0.22 for the first, 4.07 ± 0.12 for the second.

Compared with SVPRYRSLMKRCH, LINFSFSDTAVFYVREGWEH is higher in amyloid nucleation score: 0.189 ± 0.32 for the first, 6.846 ± 0.039 for the second.

TDHMHKISRVHRDKKMSVGF and WWNEYSH are within error of each other in amyloid nucleation score: -0.707 ± 1.1 for the first, -1.01 ± 0.39 for the second.

Going from IYFYKSGESFRAYPFAPGQW to GMVDLGVGSWCMEP, the amyloid nucleation score rises from -1.37 ± 0.75 to 0.893 ± 0.15.

Compared with WLYCVVTS, CKCSAAIDVRDYVS is lower in amyloid nucleation score: 1.63 ± 0.42 for the first, -0.02 ± 1.1 for the second.

IAVRDALVSVQLLPPENVGV and QGVDNGDRGRGRNLWASMRR are within error of each other in amyloid nucleation score: 1.13 ± 0.15 for the first, 1.34 ± 0.39 for the second.

Compared with SNEKVAQSLFAKEREPLRGN, ECSGEHASVQVSTGLGTDVQ is higher in amyloid nucleation score: 2.35 ± 0.12 for the first, 2.8 ± 0.065 for the second.

Compared with NRRFSSGSVSSLKFLRSVWA, GCLLRCDKRGGLRPSW is higher in amyloid nucleation score: -0.428 ± 0.61 for the first, 0.66 ± 0.24 for the second.

LWMDWS and NLFQRCREGDMVRNSSVLDG are within error of each other in amyloid nucleation score: 0.754 ± 0.36 for the first, -0.017 ± 1 for the second.

Going from TICDTLGYLTRSWYLSYESS to ISKLSARSLSRVVNLYKGVA, the amyloid nucleation score rises from -0.545 ± 0.32 to 0.85 ± 0.17.

Compared with LRPLVL, LSHMLDLRGNNKSFWCYVEG is higher in amyloid nucleation score: -0.686 ± 1.1 for the first, 0.89 ± 0.44 for the second.

VYRQNLNLNME and VFARWFYAADGYIARLHVHT are within error of each other in amyloid nucleation score: 0.189 ± 0.64 for the first, 0.133 ± 0.5 for the second.

TPLDIICEIMNFIYNTVFRL and VICLTIYRIDECLVCLLYVA are within error of each other in amyloid nucleation score: -0.501 ± 1.1 for the first, -0.405 ± 0.33 for the second.

HLCGGHGLVFFWGFVTMKCG and CSFHVGNLTWWANVEARVVV are within error of each other in amyloid nucleation score: 0.369 ± 0.8 for the first, 0.176 ± 0.29 for the second.

SYHWTGVFGLVHDFGLCCGS and LWLKEVYRWMIGGTRYL are within error of each other in amyloid nucleation score: 0.425 ± 0.38 for the first, -0.618 ± 0.76 for the second.

Compared with CWGHS, NRSGEYRPLMMCVLGPLSTD is higher in amyloid nucleation score: -0.792 ± 0.79 for the first, 0.687 ± 0.24 for the second.

YFWDQGLHPVSFRESTYDLV and KFKDHVGLYKPMGSRKFLDW are within error of each other in amyloid nucleation score: -0.243 ± 1.1 for the first, -0.28 ± 0.28 for the second.

FFDYLANFCLSKHGNNNYPF and ICSPVQSAPSRAEKND are within error of each other in amyloid nucleation score: -0.97 ± 1.1 for the first, -0.297 ± 0.45 for the second.

WTGHMPMSLVHLMIGWHGHY and GVSASQSTMLNCDNVTEDVS are within error of each other in amyloid nucleation score: 0.637 ± 0.62 for the first, 0.753 ± 0.22 for the second.

Going from TDCRFIIVYMVIGSFLYTRV to RLMQSVMCRRDLLL, the amyloid nucleation score rises from -0.747 ± 1.1 to 0.883 ± 0.47.

Compared with WYAAGLKNR, LEVHKGGLNVLSHEGLDVET is higher in amyloid nucleation score: -0.418 ± 1 for the first, 1.19 ± 0.4 for the second.

YHVVVMRSVYTVLTYNRVGA and VLGLKKSADYKS are within error of each other in amyloid nucleation score: 0.334 ± 0.65 for the first, -0.556 ± 0.74 for the second.

Compared with ILVYASWLGYHLDICSGFRS, CRLEGKTSVPCDNRGLGWAR is lower in amyloid nucleation score: 1.64 ± 0.089 for the first, 0.938 ± 0.47 for the second.

Compared with RGWLRFMEQNGTYSEYDVDL, SELLRTLGALSFYMYSFIKH is lower in amyloid nucleation score: 12.82 ± 0.022 for the first, -1.98 ± 0.54 for the second.

FISMGQGRPEFLWVFVDVGD and EFGDQLSDYNWIVCMLGTYI are within error of each other in amyloid nucleation score: 0.092 ± 1.1 for the first, -0.904 ± 1.1 for the second.

Going from SVYGQRNTIIFEFSWMRTAS to KCCILMLKA, the amyloid nucleation score falls from 7.492 ± 0.04 to 0.745 ± 0.49.

SHHHSQTRKIDPSTDFSQSS and CSRRNRRIGVALRFIFLDIY are within error of each other in amyloid nucleation score: -0.047 ± 1.1 for the first, -0.956 ± 0.78 for the second.

In the case of RYMRFYRLAGPAVLRFHLR, the amyloid nucleation score is reported as “inactive”.
With VSLLFTPTNEYIWGTPLALR the amyloid nucleation score was “inactive”.
With KAYPFYTLHVGGRDRVIPDW the amyloid nucleation score was “inactive”.
For YNKGWR, the amyloid nucleation score was “inactive”.
